Assay results: patent US20260035463A1 (MINGHUI PHARMACEUTICAL HANGZHOU, published 2026)

Target: T1, recombinant human PD-1 protein (human, UniProt Q15116 25-167, limits assumed)
T1 construct: The construct is not described; also called human recombinant PD-1
Test: screening of the anti-PD-1 phage display library; method not detailed

T1 sequence (Q15116 25-167 limits assumed): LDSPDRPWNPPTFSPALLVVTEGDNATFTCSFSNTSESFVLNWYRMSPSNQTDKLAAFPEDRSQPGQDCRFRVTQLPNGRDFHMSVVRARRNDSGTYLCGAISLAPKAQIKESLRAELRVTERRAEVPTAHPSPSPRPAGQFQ

B1: Anti-PD-1 sdAb VHH (VHH)
VHH: QVQLVESGGGLVQPGGSLRLSCATSGSRRSIYAMGWFRQAPGKGLEFVAGIGWAYATTYYADSVKGRFTISRDNTKNTLYLQMNSLRAEDTAVYYCAADLDHSGFDYWGQGTLVTVSS
notes: Obtained from an alpaca phage display library; also called anti-PD-1 VHH antibody; VHH single-domain antibody
  binding result: binds
